# Source: PMC10417383, “DNA-Binding Activity of CAMTA3 Is Essential for Its Function: Identification of Critical Amino Acids for Its Transcriptional Activity”
# T1: CAMTA3 CG-1 WT (Arabidopsis thaliana, UniProt Q8GSA7 1-153)
# T1 sequence: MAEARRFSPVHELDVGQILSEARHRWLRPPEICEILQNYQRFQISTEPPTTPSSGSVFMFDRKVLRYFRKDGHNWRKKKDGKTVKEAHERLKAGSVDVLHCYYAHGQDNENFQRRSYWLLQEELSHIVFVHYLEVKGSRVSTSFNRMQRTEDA
# Molecular target: T1, CAMTA3 CG-1 WT
# Assay: EMSA; complex detected from 25 ng protein, good binding at 50 ng or more; 20 fmol probe; reduced by unlabeled PDF1.4 competitor; 1X LightShift EMSA binding buffer, 50 ng/ul poly(dI-dC), 20 fmol probe in 20 ul, +/- 4 pmol unlabeled DNA, room temperature 30 min; 5% native PAGE, 0.5X TBE; pH and salt not given
# Conditions: protein: recombinant; tags: His (pET28a); label: 3'-biotin on strand 1; blunt
binder,measurement,value
PDF1.4 promoter probe (dsDNA) DNA 1: CGTGAAAGTCACGCGCCAAGAACAAA DNA 2: TTTGTTCTTGGCGCGTGACTTTCACG,binding result,binds
